# Data from patent publication US11306156.
# Where two headings read alike, the source gives them in different places.
# Tests used:
# [1] = biological target: D3H44 Fab heavy chain L124E_L143D_K145T (H1 of LCCA sets 9214, 9217, 9216, 9219, 9220, 9225, 9228, 9229); assay: LCCA: H1 co-expressed with L1 and L2 (DNA 333:250:749 ng), His-tag capture on SPR chip, light chain tags detected with anti-HA/anti-FLAG; competitor L2 Q124E_V133G_S176D_T178E_T180E
# [2] = biological target: D3H44 Fab heavy chain L124E_L143E_K145M (H1 of LCCA sets 9269, 9266, 9267, 9260, 9262, 9263); assay: as above
# [3] = biological target: D3H44 Fab heavy chain L124E_L143D_K145T (H1 of LCCA sets 9214, 9217, 9216, 9219, 9220, 9225, 9228, 9229)
# [4] = biological target: D3H44 Fab heavy chain L124E_L143D_K145T (H1 of LCCA sets 9214, 9217, 9216, 9219, 9220, 9225, 9228, 9229); remark: listed apart in the source
# [5] = biological target: D3H44 Fab heavy chain L124E_L143E_K145M (H1 of LCCA sets 9269, 9266, 9267, 9260, 9262, 9263)
# [6] = biological target: D3H44 Fab heavy chain L124E_L143E_K145M (H1 of LCCA sets 9269, 9266, 9267, 9260, 9262, 9263); assay: LCCA: H1 co-expressed with L1 and L2 (DNA 333:250:749 ng), His-tag capture on SPR chip, light chain tags detected with anti-HA/anti-FLAG; competitor L2 V133G_S176D_T178D_T180E
# [7] = biological target: tissue factor (TF) antigen (UniProt P13726); assay: SPR (ProteOn XPR36), Fab captured on anti-penta-His surface, TF as analyte; reference wild-type D3H44 Fab; estimated value from a Fab differing only in the L chain tag
# [8] = biological target: tissue factor (TF) antigen (UniProt P13726); assay: SPR (ProteOn XPR36), Fab captured on anti-penta-His surface, TF as analyte, 1:1 fit; estimated value from a Fab differing only in the L chain tag (HA or FLAG)
# [9] = biological target: tissue factor (TF) antigen (human (from the antibody's name 'anti-human tissue factor'; not stated for the antigen lot in the assay)) (UniProt P13726); assay: SPR (ProteOn XPR36), Fab captured on anti-penta His, TF analyte; against wild-type D3H44 Fab; batch C by the KD cell's +
# [10] = biological target: tissue factor (TF) antigen (human (from the antibody's name 'anti-human tissue factor'; not stated for the antigen lot in the assay)) (UniProt P13726); assay: SPR (ProteOn XPR36): Fab captured via His tag on anti-penta His surface, TF injected, 1:1 fit; batch C (+)
# [11] = biological target: tissue factor (TF) antigen (UniProt P13726); assay: SPR as for KD; reference: wild-type D3H44 Fab
# [12] = biological target: tissue factor (TF) antigen (UniProt P13726); assay: SPR as for KD; reference: wild-type D3H44 Fab; estimated (*) from the Fab that differs only in the L chain tag
# [13] = biological target: tissue factor (TF) antigen (UniProt P13726); assay: SPR, ProteOn XPR36; His-tagged Fab captured on anti-penta-His, TF injected; 1:1 fit
# [14] = biological target: tissue factor (TF) antigen (UniProt P13726); assay: SPR, ProteOn XPR36; His-tagged Fab captured on anti-penta-His, TF injected; 1:1 fit; estimated (*) from the Fab that differs only in the L chain tag
# [15] = biological target: D3H44 light chain Q124R_Q160K_T178R (Kabat), N-terminal HA or FLAG tag; assay: LCCA co-expression, competing light chain m39, L1:L2 DNA 1:3 normalized to 1:1, SPR tag read-out
# [16] = biological target: D3H44 light chain Q124R_Q160K_T178R (Kabat), N-terminal HA or FLAG tag; assay: LCCA co-expression, competing light chain m40, L1:L2 DNA 1:3 normalized to 1:1, SPR tag read-out
# [17] = biological target: D3H44 light chain Q124E_T180E (Kabat), N-terminal HA or FLAG tag; assay: LCCA co-expression, competing light chain m38, L1:L2 DNA 1:3 normalized to 1:1, SPR tag read-out
# [18] = biological target: D3H44 light chain Q124E_Q160E_T180E (Kabat), N-terminal HA or FLAG tag; assay: as above
# [19] = biological target: D3H44 light chain Q124E_T178E (Kabat), N-terminal HA or FLAG tag; assay: as above
# [20] = biological target: D3H44 light chain Q124R_Q160K_T178R (Kabat), N-terminal HA or FLAG tag; assay: LCCA co-expression, competing light chain m37, L1:L2 DNA 1:3 normalized to 1:1, SPR tag read-out
# [21] = biological target: D3H44 light chain Q124R_Q160K_T178R (Kabat), N-terminal HA or FLAG tag; assay: LCCA co-expression, competing light chain m39, L1:L2 DNA 1:9 normalized to 1:1, SPR tag read-out
# [22] = biological target: D3H44 light chain Q124E_Q160E_T180E (Kabat), N-terminal HA or FLAG tag; assay: LCCA co-expression, competing light chain m38, L1:L2 DNA 1:9 normalized to 1:1, SPR tag read-out
# [23] = biological target: tissue factor (TF) antigen (UniProt P13726); assay: SPR (ProteOn XPR36), Fab captured on anti-penta-His surface, TF as analyte; reference wild-type D3H44 Fab; batch C
# [24] = biological target: tissue factor (TF) antigen (UniProt P13726); assay: SPR (ProteOn XPR36), Fab captured on anti-penta-His surface, TF as analyte, 1:1 fit; batch C (stored about 2 months at 4 C)
# [25] = biological target: tissue factor (TF) (human) (UniProt P13726); assay: SPR (ProteOn), Fab captured on anti-penta His, TF analyte, 1:1 fit; estimated from Fab differing only in L chain tag
# [26] = biological target: D3H44 Fab heavy chain L124R_D146N_Q179K (H1 of LCCA sets 9358, 9359, 9357, 9351, 9352, 9353, 9354, 9350); assay: LCCA: H1 co-expressed with L1 and L2 (DNA 333:250:749 ng), His-tag capture on SPR chip, light chain tags detected with anti-HA/anti-FLAG; competitor L1 Q124E_V133G_S176D_T178E_T180E
# [27] = biological target: D3H44 Fab heavy chain L124R_D146N_Q179K (H1 of LCCA sets 9358, 9359, 9357, 9351, 9352, 9353, 9354, 9350); assay: LCCA: H1 co-expressed with L1 and L2 (DNA 333:250:749 ng), His-tag capture on SPR chip, light chain tags detected with anti-HA/anti-FLAG; competitor L1 V133G_S176D_T178E_T180E
# [28] = biological target: tissue factor (TF) antigen (UniProt P13726); assay: SPR (ProteOn XPR36), Fab captured on anti-penta-His surface, TF injected as analyte, 1:1 fit; the row's other values are marked * (estimated); reference wild-type D3H44 Fab
# [29] = biological target: tissue factor (TF) antigen (UniProt P13726); assay: SPR (ProteOn XPR36), Fab captured on anti-penta-His surface, TF injected as analyte, 1:1 fit; marked * (estimated from a Fab that differs only in the L chain tag); reference wild-type D3H44 Fab
# [30] = biological target: tissue factor (TF) antigen (UniProt P13726); assay: SPR (ProteOn XPR36), Fab captured on anti-penta-His surface, TF injected as analyte, 1:1 fit; marked * (estimated from a Fab that differs only in the L chain tag)
# [31] = biological target: D3H44 light chain Q124E_T180E (Kabat), N-terminal HA or FLAG tag; assay: LCCA co-expression, competing light chain m36, L1:L2 DNA 1:3 normalized to 1:1, SPR tag read-out
# [32] = biological target: D3H44 light chain S131K (Kabat), N-terminal HA or FLAG tag; assay: LCCA co-expression, competing light chain m37, L1:L2 DNA 1:9 normalized to 1:1, SPR tag read-out
# [33] = biological target: D3H44 light chain Q124E_T180E (Kabat), N-terminal HA or FLAG tag; assay: LCCA co-expression, competing light chain m36, L1:L2 DNA 1:9 normalized to 1:1, SPR tag read-out
# [34] = biological target: D3H44 light chain S131K (Kabat), N-terminal HA or FLAG tag; assay: LCCA co-expression, competing light chain m37, L1:L2 DNA 1:3 normalized to 1:1, SPR tag read-out
substance,measurement,setting,value
D3H44 light chain Q124K_V133G_S176R_T178R,"median LCCA performance normalized to a L1:L2 DNA ratio of 1:1 (ratio H1-L1:H1-L2), H1-L1 share (ratio part of 100)",[1],83
same,"median LCCA performance normalized to a L1:L2 DNA ratio of 1:1 (ratio H1-L1:H1-L2), H1-L1 share (ratio part of 100)",[2],84
same,"median LCCA performance normalized to a L1:L2 DNA ratio of 1:1 (ratio H1-L1:H1-L2), H1-L1 share (ratio part of 100)",[3],87
same,"median LCCA performance normalized to a L1:L2 DNA ratio of 1:1 (ratio H1-L1:H1-L2), H1-L1 share (ratio part of 100)",[4],76
same,"median LCCA performance normalized to a L1:L2 DNA ratio of 1:1 (ratio H1-L1:H1-L2), H1-L1 share (ratio part of 100)",[5],87
same,"median LCCA performance normalized to a L1:L2 DNA ratio of 1:1 (ratio H1-L1:H1-L2), H1-L1 share (ratio part of 100)",[6],62
D3H44 Fab heterodimer H1 L143D_K145T_Q179E / L1 T178R,Change in median values of KD of h1l1 Fab heterodimer compared to wild type (-(log(KD design)-log(KD wt))),[7],-0.25
same,Kd,[8],0.28 nM
"D3H44 Fab heterodimer, H1 Q39R_Q179K / L1 Q38E_Q124E_Q160E_T180E (H1L1 Fab of LCCA set 9827)",Change in median values of KD of h1l1 Fab heterodimer compared to wild type (-(log(KD design)-log(KD wt))),[9],-0.03
same,Kd,[10],0.17 nM
"D3H44 Fab heterodimer, H1L1 of LCCA Sets # 9705, 9706, 9704 and 9703 (H1 L143E_K145T_S188L; L1 Q124R)","change in median KD compared to wild type, -(log(KD design)-log(KD wt))",[11],-0.12
same,"change in median KD compared to wild type, -(log(KD design)-log(KD wt))",[12],-0.12
same,Kd,[13],0.21 nM
same,Kd,[14],0.21 nM
"D3H44 Fab heavy chain L143E_K145T (Kabat), C-terminal ABD2-His6 tag",H1L1:H1L2 normalized median ratio,[15],72 of 100
same,H1L1:H1L2 normalized median scalar value ln(r1/f1),[15],0.96
same,H1L1:H1L2 normalized median ratio,[16],59 of 100
same,H1L1:H1L2 normalized median scalar value ln(r1/f1),[16],0.36
same,H1L1:H1L2 normalized median ratio,[17],41 of 100
same,H1L1:H1L2 normalized median ratio,[18],28 of 100
same,H1L1:H1L2 normalized median ratio,[19],41 of 100
same,H1L1:H1L2 normalized median ratio,[20],59 of 100
same,H1L1:H1L2 normalized median scalar value ln(r1/f1),[20],0.38
"D3H44 Fab heavy chain L143E_K145T_Q179D (Kabat), C-terminal ABD2-His6 tag",H1L1:H1L2 normalized median ratio,[15],84 of 100
same,H1L1:H1L2 normalized median scalar value ln(r1/f1),[15],1.68
same,H1L1:H1L2 normalized median ratio,[21],88 of 100
same,H1L1:H1L2 normalized median scalar value ln(r1/f1),[21],1.97
same,H1L1:H1L2 normalized median ratio,[18],16 of 100
same,H1L1:H1L2 normalized median ratio,[22],12 of 100
D3H44 Fab heterodimer H1 L143E_K145T_Q179D / L1 T178R,Change in median values of KD of h1l1 Fab heterodimer compared to wild type (-(log(KD design)-log(KD wt))),[7],0.17
same,Change in median values of KD of h1l1 Fab heterodimer compared to wild type (-(log(KD design)-log(KD wt))),[23],0.17
same,Kd,[8],0.11 nM
same,Kd,[24],0.11 nM
H1L1 Fab heterodimer of LCCA set 9585 (D3H44 Fab; H: L143E_K145T; L: Q124R),Kd,[25],0.28 nM
same,"change in KD vs wild type, -(log(KD design)-log(KD wt))",[25],-0.25
D3H44 light chain Q124K_V133G_Q160K_S176R,"median LCCA performance normalized to a L1:L2 DNA ratio of 1:1 (ratio H1-L1:H1-L2), H1-L2 share (ratio part of 100)",[26],18
same,"median LCCA performance normalized to a L1:L2 DNA ratio of 1:1 (ratio H1-L1:H1-L2), H1-L2 share (ratio part of 100)",[27],26
"D3H44 H1L1 Fab heterodimer, H1 L124E_L143E_K145T, L1 Q124K_V133G_S176R_T178K",Change in median KD of h1l1 Fab heterodimer compared to wild type (-(log(KD design)-log(KD wt))) (log(KD) difference),[28],-0.12
same,Change in median KD of h1l1 Fab heterodimer compared to wild type (-(log(KD design)-log(KD wt))) (log(KD) difference),[29],-0.12
same,Kd,[30],0.21 nM
"D3H44 Fab heavy chain Q179K (Kabat), C-terminal ABD2-His6 tag",H2L2:H2L1 normalized median ratio,[31],98 of 100
same,H2L2:H2L1 normalized median ratio,[32],12 of 100
same,H2L2:H2L1 normalized median ratio,[15],13 of 100
same,H2L2:H2L1 normalized median ratio,[16],4 of 100
same,H2L2:H2L1 normalized median ratio,[21],12 of 100
same,H2L2:H2L1 normalized median ratio,[33],88 of 100
same,H2L2:H2L1 normalized median ratio,[17],96 of 100
same,H2L2:H2L1 normalized median ratio,[18],87 of 100
same,H2L2:H2L1 normalized median ratio,[19],96 of 100
same,H2L2:H2L1 normalized median ratio,[22],88 of 100
same,H2L2:H2L1 normalized median ratio,[34],2 of 100
same,H2L2:H2L1 normalized median ratio,[20],4 of 100
